# Results: patent US20120021972A1 (CADILA HEALTHCARE, published 2012)
# Starred links: 1 amine or outer side, 2 acyl side, 3 side chain; linkers in the order of their positions; H or OH if unused. Non-standard residues stand in square brackets, D forms with d. No end group written: not given here. AMCB = 2-amino-5-(4-chloro-2-methylphenyl)pentanoic acid, Cc1cc(Cl)ccc1CCC[C@H](N[*:1])C(=O)[*:2]; 2CF3,4F‑APPA = 2-amino-5-(4-fluoro-2-(trifluoromethyl)phenyl)pentanoic acid; 2CF3‑APPA = 2-amino-5-(2-(trifluoromethyl)phenyl)pentanoic acid; Bip(2'-Et-4'-OMe) = CCc1cc(OC)ccc1-c1ccc(C[C@H](N)C(=O)O)cc1; Leu(5,5,5,5',5',5'-F6) = N[C@@H](CC(C(F)(F)F)C(F)(F)F)C(=O)O; Nva(5-(3,5-Me2Ph)) = Cc1cc(C)cc(CCC[C@H](N)C(=O)O)c1; 2F‑APPA = 2-amino-5-(2-fluorophenyl)pentanoic acid; αMePhe(2-F) = C[C@](N)(Cc1ccccc1F)C(=O)O; hhPhe = N[C@@H](CCCc1ccccc1)C(=O)O; aThr = C[C@H](O)[C@H](N)C(=O)O; CNB = not defined here; Ac3c = NC1(C(=O)O)CC1; Aib = CC(C)(N)C(=O)O
# What was measured:
# Assay in all cases: cell-based or functional assay
# [1] = molecular target: T1, human GLP-1 receptor (human, UniProt P43220 24-463)
# [2] = molecular target: human glucagon receptor (human, UniProt P47871 26-477)
# [3] = molecular target: T1, human GLP-1 receptor; remark: listed apart in the source
# T1 sequence (P43220 24-463): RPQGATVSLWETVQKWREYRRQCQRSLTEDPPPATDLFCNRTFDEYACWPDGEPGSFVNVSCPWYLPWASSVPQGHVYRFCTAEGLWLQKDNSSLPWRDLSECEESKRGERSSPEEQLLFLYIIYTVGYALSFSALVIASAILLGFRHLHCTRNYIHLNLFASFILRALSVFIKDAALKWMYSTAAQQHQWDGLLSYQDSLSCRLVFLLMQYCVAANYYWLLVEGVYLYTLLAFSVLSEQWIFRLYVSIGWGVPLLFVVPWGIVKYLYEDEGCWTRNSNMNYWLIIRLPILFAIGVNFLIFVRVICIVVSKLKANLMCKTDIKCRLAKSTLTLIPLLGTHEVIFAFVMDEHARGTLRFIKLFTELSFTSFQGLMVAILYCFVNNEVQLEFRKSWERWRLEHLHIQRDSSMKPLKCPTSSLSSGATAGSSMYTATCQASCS
Binder,"cAMP release, % activity, 1 nM [1] [%]","cAMP release, % activity, 10 nM [1] [%]","cAMP release, % activity, 100 nM [1] [%]","cAMP release, % activity, 1 µM [1] [%]","cAMP release, % activity, 10 µM [1] [%]","inhibition of cAMP production, 1 nM [2] [pmol/ml/µg prt]","inhibition of cAMP production, 10 nM [2] [pmol/ml/µg prt]","inhibition of cAMP production, 100 nM [2] [pmol/ml/µg prt]","inhibition of cAMP production, 1 µM [2] [pmol/ml/µg prt]","inhibition of cAMP production, 10 µM [2] [pmol/ml/µg prt]","EC50, cAMP, H GLP-1 R assay [3] [nM]"
"H[Aib][Leu(5,5,5,5',5',5'-F6)]G[aThr][αMePhe(2-F)][aThr]SD[Bip(2'-Et-4'-OMe)][hhPhe] [Seq. ID. No. 228: H-Aib-(Hfl)-G-T(allo)-(α-Me-2F-Phe)-T(allo)-SD-Bip(OMe)-(APPA)]",99,99,99,99,99,19,17,15,14,12,
"H[Aib][Leu(5,5,5,5',5',5'-F6)]GT[αMePhe(2-F)]TSD[Bip(2'-Et-4'-OMe)][AMCB] [Seq. ID. No. 237: H-Aib-(Hfl)-GT-(α-Me-2F-Phe)-TSD-Bip(OMe)-(AMCB)]",96,99,99,99,99,21,19,18,18,16,
H[Aib][CNB]GTFTSD[Bip(2'-Et-4'-OMe)][hhPhe] (reading uncertain) [Seq. ID. No. 29: H-Aib-(CNB)-GTFTSD-Bip(OMe)-(APPA)],96,99,99,99,99,20,18,16,14,12,
"H[Aib][CNB]GTFTSD[Bip(2'-Et-4'-OMe)][Nva(5-(3,5-Me2Ph))] (reading uncertain) [Seq. ID. No. 30: H-Aib-(CNB)-GTFTSD-Bip(OMe)-(ADMP)]",38,78,86,95,98,22,21,20,18,18,
H[Aib]QGT[αMePhe(2-F)]TSD[Bip(2'-Et-4'-OMe)][AMCB] [Seq. ID. No. 40: H-Aib-QGT-(α-Me-2F-Phe)-TSD-Bip(OMe)-(AMCB)],38,77,85,94,97,18,16,12,8,6,
HSQGTFTSD[Bip(2'-Et-4'-OMe)][2F‑APPA] [Seq. ID. No. 45: HSQGTFTSD-Bip(OMe)-(2F-APPA)],51,86,91,99,99,15,12,8,4,2,
"H[Ac3c]QGTFTSD[Bip(2'-Et-4'-OMe)][2CF3,4F‑APPA] [Seq. ID. No. 72: H-(ACP)-QGTFTSD-Bip(OMe)-(2CF3,4F-APPA)]",45,84,90,99,99,9,6,5,3,0,
H[Aib][CNB]GTFTSD[Bip(2'-Et-4'-OMe)][2F‑APPA] (reading uncertain) [Seq. ID. No. 77: H-Aib-(CNB)-GTFTSD-Bip(OMe)-(2F-APPA)],40,81,87,95,98,20,18,16,14,12,
H[Aib][CNB]GTFTSD[Bip(2'-Et-4'-OMe)][2CF3‑APPA] (reading uncertain) [Seq. ID. No. 79: H-Aib-(CNB)-GTFTSD-Bip(OMe)-(2CF3-APPA)],62,94,99,99,99,6,5,2,0,0,
"H[Aib]QGT[αMePhe(2-F)]TSD[Bip(2'-Et-4'-OMe)][Nva(5-(3,5-Me2Ph))] [Seq. ID. No. 38: H-Aib-QGT-(α-Me-2F-Phe)-TSD-Bip(OMe)-(ADMP)]",,,,,,,,,,,0.34
